Test results taken from US11136597B2, “Compositions for enhancing targeted gene editing and methods of use thereof” (Yale University, priority 2016, dated 2021).

Assays:
F508del CFTR [1] = assay: MQAE assay measuring chloride flux in CFBE cells; assay type: cell-based; details: NPs containing γtcPNAs with 4 γ residues in the Hoogsteen domain, versus unmodified PNA
Excerpt: (§1) FIG. 7A is a bar graph showing the results of a MQAE (N-(Ethoxycarbonylmethyl)-6-Methoxyquinolinium Bromide) assay (delta(AFU)/(delta(Time (sec)) measuring chloride flux for negative control CFBE cells; CFBE cells treated with blank nanoparticles, PNA2: lys-lys-lys-TJTJJTTT-OOO-TTTCCTCTATGGGTAAG-lys-lys-lys (SEQ ID NO:93)-loaded nanoparticles, PNA2 (SEQ ID NO:93)-loaded nanoparticles with an MPG peptide, γPNA2 lys-lys-lys-TJTJJTTT-OOO-TTTCCTCTATGGGTAAG-lys-lys-lys (SEQ ID NO:69)-loaded nanoparticles; and untreated positive control wildtype 16HBE14o-cells. FIG. 7B is a dot pot showing nasal potential difference (NPD) (pretreatment, after treatment with γPNA2 (SEQ ID NO:69)-loaded nanoparticles, and after treatment with blank nanoparticles) measured using a non-invasive assay used to detect chloride potential differences in vivo.
(§2) A substantial increase in gene editing in F508del CFTR using γtcPNAs with just partial γ substitution and only in the Hoogsteen domain of CF PNA2.

F508del CFTR [2] = assay: Nasal potential difference (NPD) in CF mice after intranasal delivery; assay type: in vivo, mouse; details: intranasal delivery of NPs
Excerpt: as §1, §2

[3] = system: human β-globin gene with the thalassemia-associated IVS2-654 mutation; assay: Disease phenotype in IVS2-654 β-thalassemic mice (blood smears, CBC, reticulocytes, spleen); assay type: in vivo, mouse; details: day 36 after last treatment, four treatments at two-day intervals, SCF i.p., NPs i.v.
Experimental: The IVS2-654 β-thalassemic mice were also obtained from Ryszard Kole, University of North Carolina (Svasti, et al., Proc Natl Acad Sci USA, 106:1205-1210 (2009)). For treatment of the mice, where indicated SCF (15.6 ug per mouse, Recombinant Mouse SCF, carrier-free, R&D catalog #455-mc-050/CF) was injected intraperitoneally 3 hrs prior to treatment with 4 mg of NPs in 150 μl PBS delivered via retro-orbital intravenous injection. Each mouse received 4 treatments given at 48 hr intervals. Mice were anesthetized with isoflurane followed by retro-orbital bleeding (˜100 μL) using ethylenediaminetetraacetic acid-treated glass capillary tubes. The blood was evacuated into tubes with 5 μL of 0.5 M EDTA acid in heparinized coated tubes. Complete blood counts were performed using a Hemavet 950FS (Drew Scientific, Oxford, Conn.) according to the manufacturer's protocol. Slides containing blood smears were stained with Wright and Giemsa stain for microscopy. Methylene blue staining was used for reticulocyte counts. Spleen images and weights were taken after selected mice were sacrificed on day 36 after the last treatment. Harvested spleens were fixed in 10% neutral buffered formalin and processed by Yale Pathology Tissue Services for H&E, CD61 and E cadherin staining. […]

[4] = system: DNA repair genes (Rad51, BRCA2); assay: Gene expression profiling of SCF-treated versus untreated CD117+ cells; assay type: cell-based, mouse
[5] = system: homology-dependent repair (HDR); assay: Luciferase reporter gene assay for homology-dependent repair (HDR) in CD117+ cells; assay type: cell-based, mouse
Experimental: An inactivating I-Sce1 site was cloned 56 amino acids into the firefly luciferase open reading frame under the control of a CMV promoter. The reporter construct also contains a promoterless luciferase gene used as a template for homologous recombination. A double-strand break in the luciferase reporter is created by in vitro digestion with the I-Sce I restriction enzyme (NEB #R0694L). Plasmid DNA was digested with I-Sce 1 for 1 hour at 37° C. at a ratio of 10 units enzyme to 1 μg DNA and then the enzyme was inactivated at 65° C. for 20 minutes. The linearization of the plasmid was confirmed for each digestion via gel electrophoresis and the linear plasmid was purified using the Qiagen Qiaquick spin columns. After separation CD117+ and CD117-cells from bone marrow of β-globin/GFP transgenic mice, cells were transfected using the Lonza 2b Nucleofector Device. 5×10^5 cells were transfected with 1 μg of either the luciferase reporter vector or a positive control firefly luciferase expression vector, along with 50 ng of a renilla luciferase expression plasmid as a transfection efficiency control. All transfections were performed in triplicate. After transfection the cells were plated at a density of 5×10^5 cells/ml in 12-well plates. After 24 hours incubation post transfection, luciferase activity was measured using the Promega Dual Luciferase Assay Kit. In each sample firefly luciferase activity was normalized to the renilla luciferase transfection control. Reporter reactivation was calculated as a ratio of normalized firefly luciferase activity in the cells transfected with the reporter plasmid to the positive control.
To test whether the above increases in DNA repair gene expression could be correlated with functional differences in DNA repair, a luciferase-based assay was used to quantify repair of DNA double-strand breaks (DSBs) by HDR. In this assay, repair of a DSB in a reporter plasmid via intramolecular homologous recombination creates (“reactivates”) a functional luciferase gene (FIG. 2H), and so the assay provides a measure of HDR capacity (FIG. 2J).

[6] = system: CD117+ cells from β-globin/GFP transgenic mice; assay: Ex vivo gene editing in pre-sorted CD117+ cells with or without SCF or c-Kit pathway kinase inhibitors; assay type: cell-based, mouse
Experimental: For CD117+ cell experiments, Iscove's Modified Dulbecco's Media (IMDM) media containing insulin (10 ng/ml), FCS (10%) and erythropoietin (1 U/ml) was used to culture CD117+ cells after isolation using magnetic separation. Where indicated, 3 μg/ml of SCF (Recombinant murine SCF, catalog #250-03, PeproTech, Rocky Hill, N.J.;) was added prior to nanoparticle treatment. 2 mg/ml of NPs were used to treat 50,000-100,000 CD117+ cells in triplicate for 48 hrs in the above media, followed by flow cytometry analyses as above. Inhibitors were used at concentrations of 200 nM (dasatinib), 1.0 μM (MEK162) and 3.0 μM (BKM120). Dasatanib was obtained from Cayman Chemical (Ann Arbor, Mich.; item #11498) and dissolved according to manufacturer's protocol. MEK162 and BKM120 were obtained from Dr. Harriet Kluger, Yale University.
BD Bioscience kit catalog #558451 (BDImag™ Hematopoietic Progenitor Stem Cell Enrichment Set—DM) was used to isolate CD117 cells. Enrichment for CD117 was confirmed by flow cytometry. CD117+ enriched cells were labeled with CD117-APC (BD Pharmingen™ catalog #558451) antibody. Cells were co-labelled with control IgG antibody (BD Pharmingen™ catalog #555746) for gating purposes. To quantify GFP expression, after CD117 co-labelling, flow cytometry was performed using FACScaliburS by resuspending cells in PBS/1% FBS where green fluorescent cells are measured in the Fl1 channel and APC stained cells are in the Fl4 channel Antibodies for other markers were Ter119 (BD Pharmingen™ catalog #561033) and CD45 APC (BD Pharmingen™ catalog #561018).
To explore the mechanism of the increased gene editing in CD117+ cells, the requirement of c-Kit-dependent signaling for elevated gene correction or whether CD117 simply serves as a marker for the increased susceptibility to gene editing was distinguished. To do this, γtcPNA4/donor DNA NP-mediated gene editing was assayed in pre-sorted CD117+ cells in the presence or absence of selected kinase inhibitors (FIG. 2D). Dasatinib, which inhibits the c-Kit kinase in addition to the BCR/Abl and Src kinases, reduced the gene editing from 7% to 2.0%.

lys-lys-lys-TJTJJTTT-OOO-TTTCCTCTATGGGTAAG-lys-lys-lys (lysine caps, linker, γ residues, in nanoparticles, as printed in the source, key not given here) [γPNA2, CF PNA2 with 4 γ residues in the Hoogsteen domain, delivered in nanoparticles]
increase in activity for CFTR gene correction (MQAE assay) (F508del CFTR [1]): more than 50%
activity in vivo by NPD measurements (F508del CFTR [2]): substantial increase in activity

B1: SCF: recombinant murine stem cell factor, the ligand for c-Kit (protein)
chain: MKEICGNPVTDNVKDITKLVANLPNDYMITLNYVAGMDVLPSHCWLRDMVIQLSLSLTTLLDKFSNISEGLSNYSIIDKLGKIVDDLVLCMEENAPKNIKESPKRPETRSFTPEEFFSIFNRSIDAFKDFMVASDTSDCVLSSTLGPEKDSRVSVTKPFMLPPVA
RBC morphology in blood smears [3]: not
DNA repair gene expression [4]: additional up-regulation of numerous DNA repair genes
HDR repair activity (luciferase reactivation) in CD117+ cells ([5]; CD117+ cells): further boosted
fold increase in HDR ([5]; CD117+ cells treated with SCF): 2 fold
change of gene editing frequency on SCF treatment ([6]; CD117+ cells): almost doubles the frequency
gene editing frequency in CD117+ cells treated with SCF ([6]; γtcPNA4/donor DNA NPs, 3 μg/ml SCF added prior to nanoparticle treatment): ~15%
